Test system: MS2 coat protein
Test: apparent KD of MS2 coat protein; designed switch direction (-1 OFF switch, 1 ON switch): -1; higher = weaker reporter binding
Method in brief: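 Designed RNA switches with common flanks were transcribed on Illumina chips by stalled E. coli RNA polymerase and titrated with SNAP-549-labelled MS2 coat protein, from 0.7 or 1.5 nM doubling to 3 µM, in Tris-HCl pH 7.5 buffer with KCl, MgCl2, BSA, DTT, tRNA and Tween-20. Steps lasted 0.8–1.5 h (lowest) to 10–20 min (highest). Titrations ran without input, with 200 uM small-molecule ligand, or with an oligonucleotide input. Normalised cluster fluorescence was curve-fitted, and apparent KD is the per-design median over clusters.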

[1] = input ligand: microRNA oligo, concentration not stated
[2] = Eterna round: R95, input ligand: FMN 200 uM
[3] = Eterna round: R95, input ligand: microRNA oligo, concentration not stated
[4] = Eterna round: R95, input ligand: none

| Sequence | apparent KD of MS2 coat protein (input ligand: FMN 200 uM) [nM] | apparent KD of MS2 coat protein (input ligand: none) [nM] | apparent KD of MS2 coat protein [1] [nM] | apparent KD of MS2 coat protein [2] [nM] | apparent KD of MS2 coat protein [3] [nM] | apparent KD of MS2 coat protein [4] [nM] |
| --- | --- | --- | --- | --- | --- | --- |
| AGUUUACAUGAGGAUCACCCAUGUGAGGAUAUGGAUUCGCUGGCCGUAGCCAGUGGAUCCAGAAGGCGCAUGAU [JL-ex1-4.13] (Eterna round: R97, puzzle: Exclusion 1) | 401 | 86.3 | – | – | – | – |
| AUAAAGUGAGGAUAUCCAAUAUAUGACAUGAGGAUCACCCAUGUUUCCACUCGUACCUCCGGAGAAGGCACAAAAU [Ex5 #61] (Eterna round: R97, puzzle: Exclusion 5) | 24.5 | 30.5 | – | – | – | – |
| AUAAAUCAUGUAGGAUAUGCGUGGAGAAACUAUGCAGAAGGACAUGAGGAUCACCCAUGUGCUUCCGUCUGCGUACAGAUGGUA [Mat - Exclusion NG 1 - Mod of JL - D9] (Eterna round: R96, puzzle: Exclusion NG 1) | 134 | 27.3 | 20.1 | – | – | – |
| AUAAAUCAUGUAGGAUAUGCGUGGCAAAGCUAUGCAGAAGGACAUGAGGAUCACCCAUGUUCUUCCGUCUGCGUACAGACGGAA [Mat - Exclusion NG 1 - Mod of JL - D40] (Eterna round: R96, puzzle: Exclusion NG 1) | 418 | 37.3 | 31.4 | – | – | – |
| AUAAAUCAUGUAGGAUAUGCGUGGCGAAGCUAUGCAGAAGGACAUGAGGAUCACCCAUGUGCUUCCGUCUGCGUACAGACGGUA [Mat - Exclusion NG 1 - Mod of JL - D10] (Eterna round: R96, puzzle: Exclusion NG 1) | 125 | 142 | 77.6 | – | – | – |
| AUAAAUCAUGUAGGAUAUGCGUGGCGAAGCUAUGCAGAAGGACAUGAGGAUCACCCAUGUGCUUGCGUCUGCGUACAGAUGCUA [Mat - Exclusion NG 1 - Mod of JL - D5] (Eterna round: R96, puzzle: Exclusion NG 1) | 330 | 51.7 | 37.7 | – | – | – |
| AUAAAUUUAGAGGAUAUCUUAUAUGGGCGACCGAGAGAAGGCUGGACAUGAGGAUCACCCAUGUGCUUCGGUGA [Eternabot (L1) Solution 96] (Eterna round: R97, puzzle: Exclusion 6) | 67.5 | 75 | – | – | – | – |
| AUAACAUGCUGGUGAUCAUACAUGAGGAUCACCCAUGUAACAAGCUUUUUGCUCGUCUUAUAAGAUCACCAGCAUGU [Stov1/9-A2] (Eterna round: R97, puzzle: Sensor, turn-off variant 1) | 14.8 | 15.4 | – | – | – | – |
| AUAACGAUAGUCAGGAUAUCGGUGGCAUCCGUCACCGAGAAGGGACAUGAGGAUCACCCAUGUUAAGCCUAUGA [Eternabot (L1) Solution 69] (Eterna round: R97, puzzle: Brourd's mod of Exclusion 4) | 11.5 | 19.3 | – | – | – | – |
| AUAAGCUUUGAGAUCCUUAACAUGAGGAUCACCCAUGUUCGUCUUAUGAUGGUCUGAUCCCUGAGGAUCGGACCGUU [JL-sv1-2.02 Brourd Mod] (puzzle: Sensor v3, turn-off variant 1) | – | – | – | 262 | 10.4 | 257 |
| AUAAGGUGAGGAUAUCCACGACCCUACAUGAGGAUCACCCAUGUAUACAGUACGUGUAGAGGAGAAGGUACAUGUC [Eternabot (L2) Solution 78] (Eterna round: R97, puzzle: Exclusion 5) | 28.3 | 29.3 | – | – | – | – |
| AUAAGUGAUAAGGAUAUCACUAGCUUCGGCUAGUGAGAAGGUAUCACAUGAGGAUCACCCAUGUGUUCCAAUAA [Ex6/7-A1] (Eterna round: R97, puzzle: Exclusion 6) | 603 | 213 | – | – | – | – |
| AUAAUAAAACAUGAGGAUCACCCAUGUGGGUCGUUCUACUGGCAGGAUAUCGCCAGACAAUAAAACGAGAAGGGCCAGUUAAUA [Leanerrean] (Eterna round: R96, puzzle: Exclusion NG 3) | 168 | 86 | 92.6 | – | – | – |
| AUAAUAAAGGAGGAUAUCGUAUCGGAAACGAUACGAGAAGGUCUAACAUGAGGAUCACCCAUGUUCCUCAAUAA [Mat - Exclusion 6 - Eli Mod - D48] (puzzle: Exclusion 6) | – | – | – | 54.5 | 35.9 | 36.1 |
| AUAAUACAUGUAGGAUAUGCGUGGCGAAGCUAUGCAGAAGGACAUGAGGAUCACCCAUGUGCUAGCGUCUGCGUACAGAUGCUA [JL eng1 1.35 mod 3] (Eterna round: R96, puzzle: Exclusion NG 1) | 310 | 44.1 | 21 | – | – | – |
| AUAAUGUGAGGAUAUCAGUCGACUAGCUUCGGCUAGUCGACUGAGAAGGUACAUGAGGAUCACCCAUGUGGUUC [E4/11-B1] (Eterna round: R97, puzzle: Exclusion 4) | 885 | 456 | – | – | – | – |
| AUAAUGUGAGGAUAUCAGUCGUACAGCUGCGGCUGUACGACUGAGAAGGCACAUGAGGAUCACCCAUGUGGUCA [E4/5-A3] (Eterna round: R97, puzzle: Exclusion 4) | 70.7 | 672 | – | – | – | – |

| Sequence | apparent KD of MS2 coat protein (input ligand: FMN 200 uM) [nM] | apparent KD of MS2 coat protein (input ligand: none) [nM] | apparent KD of MS2 coat protein [1] [nM] | apparent KD of MS2 coat protein [2] [nM] | apparent KD of MS2 coat protein [3] [nM] | apparent KD of MS2 coat protein [4] [nM] |
| --- | --- | --- | --- | --- | --- | --- |
| AUAAUUAGUUCAGGAUAUCAGCACGAUUAGUGCUGAGAAGGGAACAUGAGGAUCACCCAUGUGAUCAAUAUUAUAAUUUUAAUU [ENG1/12-B1] (Eterna round: R96, puzzle: Exclusion NG 1) | 281 | 1150 | 540 | – | – | – |
| AUAAUUUAAGUCAGGAUAUACCUAUGGAAACAUAGGUAGAAGGGACAUGAGGAUCACCCAUGUUUAUAUACAUA [Fiskers BMX 4 - 4] (puzzle: Brourd's mod of Exclusion 4) | – | – | – | 29.8 | 16.8 | 15.1 |
| AUACCACGAGGAUAUCGUCUAUAAUACAUGAGGAUCACCCAUGUUAUAUCUGUAAUGUUUCGAGAAGGCGUGUGUU [JR_E5_Sub084] (Eterna round: R96, puzzle: Exclusion 5) | 17 | 21.3 | 15.4 | – | – | – |
| AUACCACGAGGAUAUCGUCUAUAAUACAUGAGGAUCACCCAUGUUAUAUCUGUAAUGUUUCGAGAAGGCGUGUGUU [JR_E5_Sub084] (puzzle: Exclusion 5) | – | – | – | – | 17.9 | – |
| AUAUAGAUAGUCAGGAUAUGCUAGUGAUAACAGUAGUAGAAGGGACAUGAGGAUCACCCAUGUAGAUAGUGCAC [Brourd's EX4 #4] (Eterna round: R97, puzzle: Brourd's mod of Exclusion 4) | 32.6 | 22.5 | – | – | – | – |
| AUAUAGCGAGGAUAUACAUGAGGAUCACCCAUGUAGGUUCCGGGUUUUCCAGUAAAAUGUAGAAGGCGCAUGGA [EX3 B.5] (Eterna round: R97, puzzle: Exclusion 3) | 99.4 | 44.6 | – | – | – | – |
| AUAUUAAGUGUGAGGAUAUGCUGGUCCUUGGAUCAGCAGAAGGCACAUGAGGAUCACCCAUGUAAUAUAUUUAU [Mat - Exclusion 4 - JL Mod - D47] (puzzle: Brourd's mod of Exclusion 4) | – | – | – | – | 78.6 | – |
| AUAUUGUGAGGAUAUCAGGUGUGCUAGCGUACUGGUACAUCUGAGAAGGCACAUGAGGAUCACCCAUGUUUCUU [Mat - Exclusion 4 - Mod of JL - D42] (puzzle: Exclusion 4) | – | – | – | – | 15.2 | – |
| AUCAGCUCGUGAGGAUAUACAUGAGGAUCACCCAUGUGGUCAUUAGCAGCUUCGGCUGCAUUAAUGUAGAAGGCACGAGCUGAU [ENG2/8-A2] (Eterna round: R96, puzzle: Exclusion NG 2) | 360 | 829 | 732 | – | – | – |
| AUCAUGUAAGGAUAUCUUACAUGGAUCGAAAGAUCAAGUUAAGAGAAGGUACAUGAGGAUCACCCAUGUAUAAC [Ex4-3: 34] (puzzle: Exclusion 4) | – | – | – | 21 | 22.3 | 20.8 |
| AUCAUGUAAGGAUAUCUUACAUGUGACUUCGGUCACAGUUAAGAGAAGGUACAUGAGGAUCACCCAUGUAUAAC [Ex4-3: 37] (puzzle: Exclusion 4) | – | – | – | – | 25.3 | – |
| AUCAUGUAAGGAUAUCUUAUAUGGAUCGAAAGAUCAAGUUAAGAGAAGGUACAUGAGGAUCACCCAUGUAUAAC [Ex4-3: 33] (puzzle: Exclusion 4) | – | – | – | – | 19.4 | – |
| AUCAUGUAAGGAUAUCUUAUAUGGAUCUUCGGAUCAAGUUAAGAGAAGGUACAUGAGGAUCACCCAUGUAUAAC [Ex4-3: 32] (puzzle: Exclusion 4) | – | – | – | – | 24.3 | – |
| AUCCAACAUGAGGAUCACCCAUGUCAGGAUAUCUAGCGGUGCGGCAACCCGGGCGCGCGGAGAAGGGACAACGG [EX1 B.23] (Eterna round: R97, puzzle: Exclusion 1) | 56.2 | 27.2 | – | – | – | – |
| AUCCAGCUAGGAUAUGCAGAGGCGAUCGCGGGCAUGUCCCAACAUGAGGAUCACCCAUGUAGAAGGAGCCAAGG [Eternabot (Original) Solution 48] (Eterna round: R97, puzzle: Exclusion 2) | 76.1 | 33.2 | – | – | – | – |
| AUCCCGCGAGGAUAUACAUGAGGAUCACCCAUGUAGGUUCUGGAUGGGCGAAAUUUGUGUAGAAGGCGCACCAA [Tibeaqu] (Eterna round: R96, puzzle: Exclusion 3) | 38.4 | 52 | 42.6 | – | – | – |
| AUCCGACAUGAGGAUCACCCAUGUCAGGAUAUGGACUGACAUCGAAAGGAUGGAAGAACCAGAAGGGACUGGGC [Betiqu] (Eterna round: R96, puzzle: Exclusion 1) | 71.7 | 20.1 | 17.1 | – | – | – |
